Legend:
HLA-A*02:03 = assay: IEDB peptide-MHC binding, purified MHC/direct/fluorescence; filed as Kd, often an IC50 or EC50 that approximates it; ≥ and ≤ were set here for values at or beyond the usual limits of such assays
HLA-A*02:11 = assay: as above
HLA-A*02:12 = assay: as above
HLA-A*02:16 = assay: as above
HLA-A*02:19 = assay: as above
HLA-A*03:01 [1] = assay: as above
HLA-A*23:01 = assay: as above
HLA-A*24:03 = assay: as above
HLA-A*29:02 = assay: as above
HLA-A*68:02 = assay: as above
HLA-A*02:01 = assay: IEDB peptide-MHC binding, purified MHC/competitive/fluorescence; filed as Kd, often an IC50 or EC50 that approximates it; ≥ and ≤ were set here for values at or beyond the usual limits of such assays
HLA-A*26:01 = assay: as above
HLA-A*69:01 = assay: as above
HLA-B*15:01 = assay: as above
HLA-B*15:17 = assay: as above
HLA-B*18:01 = assay: as above
HLA-B*27:03 = assay: as above
HLA-B*39:01 = assay: as above
HLA-B*46:01 = assay: as above
HLA-B*51:01 = assay: as above
HLA-B*57:01 = assay: as above
HLA-B*07:02 = assay: IEDB peptide-MHC binding, purified MHC/direct/fluorescence; filed as Kd, often an IC50 or EC50 that approximates it; ≥ and ≤ were set here for values at or beyond the usual limits of such assays; settings: source organism: Seoul virus 80-39
HLA-B*58:01 = assay: as above; settings: source organism: Orthohantavirus andesense
HLA-A*03:01 [2] = assay: IEDB peptide-MHC binding, purified MHC/competitive/fluorescence; ≥ and ≤ were set here for values at or beyond the usual limits of such assays; settings: source organism: Sudan ebolavirus
HLA-A*11:01 = assay: as above; settings: source organism: Sudan ebolavirus
HLA-B*27:05 = assay: IEDB peptide-MHC binding, purified MHC/direct/fluorescence; filed as Kd, often an IC50 or EC50 that approximates it; ≥ and ≤ were set here for values at or beyond the usual limits of such assays; settings: source organism: Zaire ebolavirus
[3] = source organism: Limestone Canyon virus
[4] = source organism: Orthohantavirus andesense
[5] = source organism: Orthohantavirus sinnombreense
[6] = source organism: Orthohantavirus hantanense
[7] = source organism: Seoul virus 80-39
[8] = source organism: Zaire ebolavirus

LVTARQKLK
Kd (HLA-A*02:03; [3]): ≥ 20 µM | Kd (HLA-A*02:11; [3]): ≥ 20 µM | Kd (HLA-A*02:12; [3]): ≥ 20 µM | Kd (HLA-A*02:16; [3]): ≥ 20 µM | Kd (HLA-A*02:19; [3]): ≥ 20 µM | Kd (HLA-A*03:01 [1]; [4]): 9 µM | Kd (HLA-A*23:01; [3]): ≥ 20 µM | Kd (HLA-A*24:03; [3]): ≥ 20 µM | Kd (HLA-A*29:02; [3]): ≥ 20 µM | Kd (HLA-A*68:02; [3]): ≥ 20 µM | Kd (HLA-A*02:01; [5]): ≥ 20 µM | Kd (HLA-A*26:01; [5]): ≥ 20 µM | Kd (HLA-A*69:01; [5]): ≥ 20 µM | Kd (HLA-B*15:01; [5]): ≥ 20 µM | Kd (HLA-B*15:17; [5]): ≥ 20 µM | Kd (HLA-B*18:01; [5]): ≥ 20 µM | Kd (HLA-B*27:03; [5]): ≥ 20 µM | Kd (HLA-B*39:01; [5]): ≥ 20 µM | Kd (HLA-B*46:01; [5]): ≥ 20 µM | Kd (HLA-B*51:01; [5]): ≥ 20 µM | Kd (HLA-B*57:01; [5]): ≥ 20 µM

LVRDITESL
Kd (HLA-A*02:03; [6]): ≥ 20 µM | Kd (HLA-A*02:12; [6]): ≥ 20 µM | Kd (HLA-A*02:16; [6]): ≥ 20 µM | Kd (HLA-A*03:01 [1]; [6]): ≥ 20 µM | Kd (HLA-A*23:01; [6]): ≥ 20 µM | Kd (HLA-A*24:03; [6]): ≥ 20 µM | Kd (HLA-A*29:02; [6]): ≥ 20 µM | Kd (HLA-B*07:02): 0.0392 µM | Kd (HLA-A*26:01; [7]): ≥ 20 µM | Kd (HLA-A*69:01; [7]): ≥ 20 µM | Kd (HLA-B*18:01; [7]): ≥ 20 µM | Kd (HLA-B*27:03; [7]): ≥ 20 µM | Kd (HLA-B*39:01; [7]): ≥ 20 µM | Kd (HLA-B*51:01; [7]): ≥ 20 µM | Kd (HLA-B*57:01; [7]): ≥ 20 µM

VSANVKGNW
Kd (HLA-A*02:03; [4]): ≥ 20 µM | Kd (HLA-A*02:11; [4]): ≥ 20 µM | Kd (HLA-A*02:12; [4]): ≥ 20 µM | Kd (HLA-A*02:16; [4]): ≥ 20 µM | Kd (HLA-A*02:19; [4]): ≥ 20 µM | Kd (HLA-A*03:01 [1]; [4]): ≥ 20 µM | Kd (HLA-A*24:03; [4]): ≥ 20 µM | Kd (HLA-A*29:02; [4]): ≥ 20 µM | Kd (HLA-A*68:02; [4]): ≥ 20 µM | Kd (HLA-B*58:01): 0.0023 µM | Kd (HLA-A*02:01; [4]): ≥ 20 µM | Kd (HLA-A*26:01; [4]): ≥ 20 µM | Kd (HLA-A*69:01; [4]): ≥ 20 µM | Kd (HLA-B*15:01; [4]): ≥ 20 µM | Kd (HLA-B*18:01; [4]): ≥ 20 µM | Kd (HLA-B*27:03; [4]): ≥ 20 µM | Kd (HLA-B*39:01; [4]): ≥ 20 µM | Kd (HLA-B*46:01; [4]): ≥ 20 µM

DRLASTVIY
IC50 (HLA-A*03:01 [2]): ≥ 257 µM | IC50 (HLA-A*11:01): ≥ 120 µM | Kd (HLA-A*02:03; [8]): ≥ 20 µM | Kd (HLA-A*02:11; [8]): ≥ 20 µM | Kd (HLA-A*02:12; [8]): ≥ 20 µM | Kd (HLA-A*02:16; [8]): ≥ 20 µM | Kd (HLA-A*02:19; [8]): ≥ 20 µM | Kd (HLA-A*03:01 [1]; [8]): ≥ 20 µM | Kd (HLA-A*23:01; [8]): ≥ 20 µM | Kd (HLA-A*24:03; [8]): ≥ 20 µM | Kd (HLA-A*29:02; [8]): ≥ 20 µM | Kd (HLA-B*27:05): 8.77 µM | Kd (HLA-A*02:01; [8]): ≥ 20 µM | Kd (HLA-A*26:01; [8]): ≥ 20 µM | Kd (HLA-A*69:01; [8]): ≥ 20 µM | Kd (HLA-B*15:01; [8]): ≥ 20 µM | Kd (HLA-B*15:17; [8]): ≥ 20 µM | Kd (HLA-B*18:01; [8]): ≥ 20 µM | Kd (HLA-B*27:03; [8]): ≥ 20 µM | Kd (HLA-B*39:01; [8]): ≥ 20 µM | Kd (HLA-B*46:01; [8]): ≥ 20 µM | Kd (HLA-B*51:01; [8]): ≥ 20 µM | Kd (HLA-B*57:01; [8]): ≥ 20 µM

— the Immune Epitope Database (IEDB)
